Measured values taken from paper PMC7690626 (2020).

Key:
Assay in all cases: FACS; CXCR4+ Toledo cells
[1] = target: T22-GFP-H6 protein nanoparticle (unlabeled) (horseshoe crab | , UniProt P14216)
[2] = target: T22-GFP-H6-ATTO nanoconjugate (T22-GFP-H6 labeled with ATTO488) (horseshoe crab | , UniProt P14216, ATTO488 covalently bound through exposed external lysines (NHS-ester to amine); Poisson dye load distribution, positions not given)
[3] = target: T22-GFP-H6-S-Cy5 nanoconjugate (T22-GFP-H6 labeled with Sulfo-Cyanine5) (horseshoe crab | , UniProt P14216, Sulfo-Cyanine 5 covalently bound through exposed external lysines (NHS-ester to amine); Poisson dye load distribution, positions not given)

- Kd [1]: 140 nM
- Kd [2]: 250 nM
- Kd [3]: 540 nM
B1: CXCR4 receptor on human Toledo diffuse large B-cell lymphoma cells (receptor)
chain: MEGISIYTSDNYTEEMGSGDYDSMKEPCFREENANFNKIFLPTIYSIIFLTGIVGNGLVILVMGYQKKLRSMTDKYRLHLSVADLLFVITLPFWAVDAVANWYFGNFLCKAVHVIYTVNLYSSVLILAFISLDRYLAIVHATNSQRPRKLLAEKVVYVGVWIPALLLTIPDFIFANVSEADDRYICDRFYPNDLWVVVFQFQHIMVGLILPGIVILSCYCIIISKLSHSKGHQKRKALKTTVILILAFFACWLPYYIGISIDSFILLEIIKQGCEFENTVHKWISITEALAFFHCCLNPILYAFLGAKFKTSAQHALTSVSRGSSLKILSKGKRGGHSSVSTESESSSFHSS
